Laboratory results: patent US20100003258A1 (AVEO PHARMACEUTICALS, published 2010)

Key:
[1] = target: T1, recombinant human FGFR3 IIIb Fc fusion protein (human, UniProt P22607-2 23-377, limits assumed); experiment: SPR (Biacore T100), antibody captured on anti-mouse Ig, rhFGFR3 IIIb Fc as analyte, 37 C
T1 construct: Bought reagent; the IIIb splice isoform is meant; also called rhFGFR3 IIIb Fc; hFGFR3 IIIb; not shown: Fc fragment (removable by Factor Xa, detected with anti-human IgG)
T1 sequence (looked up): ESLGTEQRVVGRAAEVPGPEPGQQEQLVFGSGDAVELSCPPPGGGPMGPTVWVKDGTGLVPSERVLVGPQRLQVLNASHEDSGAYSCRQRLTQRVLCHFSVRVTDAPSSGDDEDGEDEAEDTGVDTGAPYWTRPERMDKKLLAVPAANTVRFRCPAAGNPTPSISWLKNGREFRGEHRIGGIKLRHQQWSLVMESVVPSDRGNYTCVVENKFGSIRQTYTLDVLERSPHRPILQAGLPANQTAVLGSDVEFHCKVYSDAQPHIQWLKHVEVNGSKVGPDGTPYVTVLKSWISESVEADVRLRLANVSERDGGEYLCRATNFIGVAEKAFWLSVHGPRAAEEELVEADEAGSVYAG
Experimental: (§1) The binding affinities and kinetics of interaction of the monoclonal antibodies (15D8, 27H2, 2G4, and 4E7(7D12)) produced in Example 1 against recombinant human FGFR3 (IIIb and IIIc isoforms) Fc fusion protein (rhFGFR3 IIIb Fc or rhFGFR3 IIIc Fc) were measured by surface plasmon resonance using a Biacore™ T100 (Biacore) instrument.
(§2) Rabbit anti-mouse immunoglobulins (Biacore, Catalog No. BR-1005-14) were immobilized on carboxymethylated dextran CM4 sensor chips (Biacore, Catalog No. BR-1005-34) by amine coupling (Biacore, Catalog No. BR-1000-50) using a standard coupling protocol according to manufacturer's instructions.
(§3) The antibodies were captured in an individual flow cell at a flow rate of 10 μl/min. Injection time was varied for each antibody to yield approximately 40-50 RU of antibody captured for each cycle. Buffer or rhFGFR3 IIIb Fc (R&D Systems, Catalog No. 1264-FR-050) or rhFGFR3 IIIc Fc (R&D Systems, Catalog No. 766-FR-050) diluted in running buffer was injected sequentially over a reference surface (no antibody captured) and the active surface (antibody to be tested) for 300 sec at 60 μl/min. The dissociation phase was monitored for 30 minutes. The surface was then regenerated with two 60-seconds injection of 10 mM Glycine-HCl, pH 1.7 (made from Glycine pH 1.5 (Biacore, Catalog No. BR-1003-54) and pH 2.0 (Biacore, Catalog No. BR-1003-55)) at a flow rate of 60 μl/min. rhFGFR3 Fc concentrations tested were 0.62 nM to 40 nM.

[2] = target: T2, recombinant human FGFR3 IIIc Fc fusion protein (human, UniProt P22607 23-375); experiment: SPR (Biacore T100), antibody captured on anti-mouse Ig, rhFGFR3 IIIc Fc as analyte, 37 C
T2 construct: Bought reagent; also called rhFGFR3 IIIc Fc; not shown: Fc fragment (removable by Factor Xa)
T2 sequence (looked up): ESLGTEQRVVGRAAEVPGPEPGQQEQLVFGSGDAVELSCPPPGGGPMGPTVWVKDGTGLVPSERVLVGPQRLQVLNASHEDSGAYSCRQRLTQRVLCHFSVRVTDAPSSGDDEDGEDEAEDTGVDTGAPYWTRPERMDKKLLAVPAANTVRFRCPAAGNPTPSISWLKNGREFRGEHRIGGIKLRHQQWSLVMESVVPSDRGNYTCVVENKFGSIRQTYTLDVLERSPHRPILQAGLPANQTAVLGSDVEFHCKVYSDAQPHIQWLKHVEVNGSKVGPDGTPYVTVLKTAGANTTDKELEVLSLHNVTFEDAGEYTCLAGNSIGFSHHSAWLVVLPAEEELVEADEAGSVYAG
Experimental: as §1, §2, §3

[3] = target: T1, recombinant human FGFR3 IIIb Fc fusion …; experiment: SPR (Biacore T100), antibody captured on anti-mouse Ig, rhFGFR3 IIIb Fc as analyte, 25 C
Experimental: as §1, §2, §3

[4] = target: T2, recombinant human FGFR3 IIIc Fc fusion …; experiment: SPR (Biacore T100), antibody captured on anti-mouse Ig, rhFGFR3 IIIc Fc as analyte, 25 C
Experimental: as §1, §2, §3

[5] = target: T1, recombinant human FGFR3 IIIb Fc fusion …; experiment: ECL competition assay: inhibition of rhFGFR3 IIIb Fc binding to coated FGF1 (competitor FGF1)
Experimental: The antibodies were tested by ECL (Electrochemiluminescence) assay for inhibition of hFGFR3 IIIB binding to FGF-1. […] The plates then were washed 3 times with PBS and blocked with 200 μl of PBS containing 5% BSA (Sera Care Life Sciences, Catalog No. AP-4510-80) and 5 μg/mL heparin (Sigma, Catalog No. H4784) for 1 hour at room temperature. The antibodies (concentration range: 0.029-30 μg/mL) were incubated for 1 hour at room temperature with 1.7 μg/mL rhFGFR3 IIIb Fc (R&D Systems, Catalog No. 1264-FR-050) and 5 μg/mL heparin. After washing the plates 3 times with PBS, 25 μl of the antibody-receptor mixture was added to the plates for another hour at room temperature with agitation. The plates were washed three times with PBS and incubated with 25 μl of 1 μg/mL ST-anti-human IgG antibody (Meso Scale Discovery, Catalog No. R32AJ-1) for 1 hour at room temperature with agitation. The plates then were washed 3 times with PBS, and 150 μl of 1× read buffer (Meso Scale Discovery, Catalog No. R92TC-1) was added to each well before the plates were analyzed on a Sector Imager 2400 (Meso Scale Discovery) instrument.

B1: anti-FGFR3 monoclonal antibody 4E7 (antibody, mouse IgG1, kappa, V domains shown)
VH: EIQLQQSGPELVKPGASVKVSCKASGYAFTSYNMYWVKQSHGKSLEWIGYIDPYNGGTRYNQKFKGKATLTVDKSSSTAYMHLNSLTSEDSAVYYCAREGGNYEAWFAYWGQGTLVTVSA
VL: QIVLTQSPALMSASPGEKVTMTCSASSSVSYMYWYQQKPRSSPKPWIYLTSNLASGVPARFSGSGSGTSYSLTISSMEAEDAATYYCQQWSSNPLTFGAGTKLELKR
notes: Murine IgG1/kappa from hybridoma; also called 4E7 IgG1; 4E7 (7D12)
B1 was tested. Which Kd [1] did it give?
The Kd was 3.3 nM.

What about the koff [1] of the same binder?
Its koff is 0.00023 s⁻¹.

What about the kon [1] of the same binder?
The kon was 74000 M⁻¹ s⁻¹.

And the Kd [2]?
Its Kd is 2.2 nM.

What about the koff [2] of the same binder?
Its koff is 0.00017 s⁻¹.

What about the kon [2] of the same binder?
The kon was 94000 M⁻¹ s⁻¹.

And the Kd [3]?
The Kd was 3.3 nM.

And the koff [3]?
The koff was 0.00037 s⁻¹.

And the kon [3]?
The kon was 150000 M⁻¹ s⁻¹.

What about the Kd [4] of the same binder?
Its Kd is 2.6 nM.

What about the koff [4] of the same binder?
The koff was 0.00019 s⁻¹.

And the kon [4]?
The kon was 110000 M⁻¹ s⁻¹.

What about the IC50 [5] of the same binder?
Its IC50 is 18.5 nM.

What about the “Maximum Neutralization (%)” value [5] of the same binder?
Its value is 91.2%.

B2: 4E7 Fab (Fab, V domains shown, not shown: a dimerising Fc or GST)
VH: EIQLQQSGPELVKPGASVKVSCKASGYAFTSYNMYWVKQSHGKSLEWIGYIDPYNGGTRYNQKFKGKATLTVDKSSSTAYMHLNSLTSEDSAVYYCAREGGNYEAWFAYWGQGTLVTVSA
VL: QIVLTQSPALMSASPGEKVTMTCSASSSVSYMYWYQQKPRSSPKPWIYLTSNLASGVPARFSGSGSGTSYSLTISSMEAEDAATYYCQQWSSNPLTFGAGTKLELKR
notes: Fab fragment of murine 4E7; preparation not described; also called anti-FGFR3 Fab fragment 4E7
With B2 as the binder, how does the IC50 [5] read?
The IC50 was 69.5 nM.

And the “Maximum Neutralization (%)” value [5]?
Its value is 92.2%.

B3: anti-FGFR3 monoclonal antibody 7D12 (antibody, mouse IgG1, kappa, V domains shown)
VH: EIQLQQSGPELVKPGASVKVSCKASGYAFTSYNMYWVKQSHGKSLEWIGYIDPYNGGTRYNQKFKGKATLTVDKSSSTAYMHLNSLTSEDSAVYYCAREGGNYEAWFAYWGQGTLVTVSA
VL: QIVLTQSPALMSASPGEKVTMTCSASSSVSYMYWYQQKPRSSPKPWIYLTSNLASGVPARFSGSGSGTSYSLTISSMEAEDAATYYCQQWSSNPLTFGAGTKLELKR
notes: Murine IgG1/kappa from a separate hybridoma; also called 7D12 IgG1; 4E7 (7D12)
Which results are given for B3?
IC50 [5]: 13.3 nM; Maximum Neutralization (%) [5]: 93.9%

B4: 7D12 Fab (Fab, V domains shown, not shown: a dimerising Fc or GST)
VH: EIQLQQSGPELVKPGASVKVSCKASGYAFTSYNMYWVKQSHGKSLEWIGYIDPYNGGTRYNQKFKGKATLTVDKSSSTAYMHLNSLTSEDSAVYYCAREGGNYEAWFAYWGQGTLVTVSA
VL: QIVLTQSPALMSASPGEKVTMTCSASSSVSYMYWYQQKPRSSPKPWIYLTSNLASGVPARFSGSGSGTSYSLTISSMEAEDAATYYCQQWSSNPLTFGAGTKLELKR
notes: preparation not described; also called anti-FGFR3 Fab fragment 7D12
For B4, which IC50 [5] is on record?
The IC50 was 50 nM.

What about the “Maximum Neutralization (%)” value [5] of the same binder?
The value was 88.8%.

B5: anti-FGFR3 monoclonal antibody 27H2 (antibody, mouse IgG1, kappa, V domains shown)
VH: EIQLQQSGPELVKPGASVKVSCKASGYAFTSYNMYWVKQSHGKSLEWIGYIDPYNGGTRYNQKFKGKATMTVDKSSSTAYMHLNSLTSEDSAVYYCAREGGNYEAWFAYWGQGTLVTVSA
VL: QIVLTQSPALMSASPGEKVTMTCSASSSVSYMYWYQQKPRSSPKPWIYLTSNLASGVPARFSGSGSGTSYSLTISSMEAEDAATYYCQQWSSNPLTFGAGTKLELKR
notes: Murine IgG1/kappa from hybridoma; also called 27H2 IgG1; murine antibody 27H2
How did the Kd [1] turn out when B5 was run?
Its Kd is 2.1 nM.

And the koff [1]?
Its koff is 0.00019 s⁻¹.

And the kon [1]?
The kon was 100000 M⁻¹ s⁻¹.

And the Kd [2]?
The Kd was 2.1 nM.

And the koff [2]?
The koff was 0.0002 s⁻¹.

And the kon [2]?
The kon was 96000 M⁻¹ s⁻¹.

What about the Kd [3] of the same binder?
Its Kd is 3 nM.

And the koff [3]?
Its koff is 0.00026 s⁻¹.

And the kon [3]?
Its kon is 90000 M⁻¹ s⁻¹.

And the Kd [4]?
The Kd was 2.1 nM.

And the koff [4]?
The koff was 0.00016 s⁻¹.

What about the kon [4] of the same binder?
Its kon is 75000 M⁻¹ s⁻¹.

And the IC50 [5]?
The IC50 was 15.4 nM.

What about the “Maximum Neutralization (%)” value [5] of the same binder?
Its value is 99.6%.

B6: 15D8 Fab (Fab, V domains shown, not shown: a dimerising Fc or GST)
VH: EIQLQQSGPELVKPGASVKVSCKASGYAFTSYNMYWVKQSHGKSLEWIGYIDPYNGGTSYNQKFKGKATLTVDKSSSTAYMHLNSLTSEDSAVYYCAREGGNYEAWFAYWGQGTLVTVSA
VL: QIVLTQSPALMSASPGEKVTMTCSASSSVSYMYWYQQKPRSSPKPWIYLTSYLASGVPARFSGSGSGTSYSLTISSMEAEDAATYYCQQWSSYPLTFGAGTKLELKR
notes: Fab fragment of murine 15D8; preparation not described; also called anti-FGFR3 Fab fragment 15D8
Which IC50 [5] does the source give for B6 here?
Its IC50 is 63.8 nM.

And the “Maximum Neutralization (%)” value [5]?
Its value is 91.7%.

B7: anti-FGFR3 monoclonal antibody 2G4 (antibody, mouse IgG1, kappa, V domains shown)
VH: EIQLQQSGPELVKPGASVKVSCKASGYAFTSYNMYWVKQSHGKSLEWIGYIDPYNGGTRDNQKFKGKATLTVDKSSSTAYMHLNSLTSEDSAVYYCAREGGNYEAWFAYWGQGTLVTVSA
VL: QIVLTQSPALMSASPGEKVTMTCSASSSVSYMYWYQQKPRSSPKPWIYLTSNLASGVPARFSGSGSGTSYSLTISSMEAEDAATYYCQQWSSNPLTFGAGTKLELKR
notes: Murine IgG1/kappa from hybridoma; also called 2G4 IgG1; murine antibody 2G4
What does the source list for B7?
Kd [1]: 1.4 nM; koff [1]: 0.00023 s⁻¹; kon [1]: 150000 M⁻¹ s⁻¹; Kd [2]: 2.6 nM; koff [2]: 0.00026 s⁻¹; kon [2]: 100000 M⁻¹ s⁻¹; Kd [3]: 3.2 nM; koff [3]: 0.00032 s⁻¹; kon [3]: 120000 M⁻¹ s⁻¹; Kd [4]: 1.1 nM; koff [4]: 0.00011 s⁻¹; kon [4]: 100000 M⁻¹ s⁻¹; IC50 [5]: 11.1 nM; Maximum Neutralization (%) [5]: 64.9%

B8: 2G4 Fab (Fab, V domains shown, not shown: a dimerising Fc or GST)
VH: EIQLQQSGPELVKPGASVKVSCKASGYAFTSYNMYWVKQSHGKSLEWIGYIDPYNGGTRDNQKFKGKATLTVDKSSSTAYMHLNSLTSEDSAVYYCAREGGNYEAWFAYWGQGTLVTVSA
VL: QIVLTQSPALMSASPGEKVTMTCSASSSVSYMYWYQQKPRSSPKPWIYLTSNLASGVPARFSGSGSGTSYSLTISSMEAEDAATYYCQQWSSNPLTFGAGTKLELKR
notes: Fab fragment of murine 2G4; preparation not described; also called anti-FGFR3 Fab fragment 2G4
What does the source list for B8?
IC50 [5]: 65 nM; Maximum Neutralization (%) [5]: 96.2%

B9: 27H2 Fab (Fab, V domains shown, not shown: a dimerising Fc or GST)
VH: EIQLQQSGPELVKPGASVKVSCKASGYAFTSYNMYWVKQSHGKSLEWIGYIDPYNGGTRYNQKFKGKATMTVDKSSSTAYMHLNSLTSEDSAVYYCAREGGNYEAWFAYWGQGTLVTVSA
VL: QIVLTQSPALMSASPGEKVTMTCSASSSVSYMYWYQQKPRSSPKPWIYLTSNLASGVPARFSGSGSGTSYSLTISSMEAEDAATYYCQQWSSNPLTFGAGTKLELKR
notes: Fab fragment of murine 27H2; preparation not described; also called anti-FGFR3 Fab fragment 27H2
What does the source list for B9?
IC50 [5]: 53.5 nM; Maximum Neutralization (%) [5]: 95.8%
